Source: PMC7497807 (Blood cancer discovery, 2020)

T1: BCOR (aa 1176–1225)-FITC (UniProt Q6W2J9 1176-1225, fluorescein (printed as BCOR (aa 1176–1225)-FITC))
T1 peptide (looked up): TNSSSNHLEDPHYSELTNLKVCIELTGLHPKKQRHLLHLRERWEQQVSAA


Assays:
Assay in all cases: fluorescence polarisation
[1] = biological target: T1, BCOR (aa 1176–1225)-FITC
[2] = biological target: fluorescein-labeled CBX8 peptide (FITC-CBX8) (fluorescein (printed as FITC-CBX8))
[3] = biological target: MBP-AF9
Sequence of MBP-AF9 (P42568 whole entry, the tested form may be a part): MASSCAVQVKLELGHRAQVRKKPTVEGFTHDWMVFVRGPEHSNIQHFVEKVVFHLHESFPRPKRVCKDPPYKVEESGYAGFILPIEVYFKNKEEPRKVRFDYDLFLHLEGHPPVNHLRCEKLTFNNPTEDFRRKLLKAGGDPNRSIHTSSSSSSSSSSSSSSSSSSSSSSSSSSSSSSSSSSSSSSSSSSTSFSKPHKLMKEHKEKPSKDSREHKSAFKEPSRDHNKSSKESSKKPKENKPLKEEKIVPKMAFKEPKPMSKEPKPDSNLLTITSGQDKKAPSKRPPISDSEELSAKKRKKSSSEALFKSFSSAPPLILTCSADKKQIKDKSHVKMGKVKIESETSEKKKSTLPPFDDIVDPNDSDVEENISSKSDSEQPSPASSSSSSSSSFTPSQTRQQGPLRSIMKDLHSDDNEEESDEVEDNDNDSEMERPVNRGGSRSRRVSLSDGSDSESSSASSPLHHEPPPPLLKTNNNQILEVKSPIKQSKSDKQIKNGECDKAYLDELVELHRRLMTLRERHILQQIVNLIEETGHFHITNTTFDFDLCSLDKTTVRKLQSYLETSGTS

Row | fold tighter binding to MBP-ENL than to MBP-AF9 [1] [fold] | Kd [2] [nM] | IC50 [3] [nM] | Binder
1 | 9 | 112 ± 13 |  | MBP-ENL (domain or fragment) YTDELVELHRRLMALRERNVLQQIVNLIEETGHFNVTNTTFDFDLFSLDETTVRKLQSCLE
2 |  |  | 1880 ± 202 | AQGGRPSLIARIPVARILGDPEEE [unlabeled CBX8 WT peptide]
